Assay results taken from paper PMC12478167.

Key:
[1] = molecular target: sLilrB2, a soluble Fc-tagged form of LilrB2 containing the entire extracellular domain (human) (UniProt Q8N423); assay: SPR
[2] = molecular target: endogenous PirB in mouse cortical neurons (mouse (endogenous in cortical neurons)) (UniProt P97484); assay: immunostaining of cells or tissue
[3] = molecular target: Myc-tagged LilrB2 expressed in HEK293 cells (human) (UniProt Q8N423); assay: immunostaining of cells or tissue
[4] = molecular target: HA-PirB expressed in HEK293 cells (mouse) (UniProt P97484); assay: immunostaining of cells or tissue

- Kd [1]: 3 nM
- Kd [2]: 380 nM
- Kd [3]: 37 nM
- Kd [4]: 56 nM
Substance: C4d, terminal split product of complement component C4 (from UniProt P0C0L4 957-1336) (domain or fragment)
